Results taken from patent US6767720 (VLAAMS INTERUNIVERSITAIR INSTITUUT VOOR BIOTECHNOLOGIE VZW, dated 2004).

Key:
[1] = biological target: T1, ANC-2H01 initial two-hybrid clone (part of ANC-2H01 fused to the GAL4-AD, plasmid pGAD10ANC2H01) (human, UniProt Q9UID6 27-485); assay: yeast two-hybrid, strain HF7c, HIS3 and LacZ reporters
T1 construct: 27-485 is derived from 459 of 485 residues; also called ANC-2H01 clone; initial ANC-2H01 two-hybrid clone
T1 sequence: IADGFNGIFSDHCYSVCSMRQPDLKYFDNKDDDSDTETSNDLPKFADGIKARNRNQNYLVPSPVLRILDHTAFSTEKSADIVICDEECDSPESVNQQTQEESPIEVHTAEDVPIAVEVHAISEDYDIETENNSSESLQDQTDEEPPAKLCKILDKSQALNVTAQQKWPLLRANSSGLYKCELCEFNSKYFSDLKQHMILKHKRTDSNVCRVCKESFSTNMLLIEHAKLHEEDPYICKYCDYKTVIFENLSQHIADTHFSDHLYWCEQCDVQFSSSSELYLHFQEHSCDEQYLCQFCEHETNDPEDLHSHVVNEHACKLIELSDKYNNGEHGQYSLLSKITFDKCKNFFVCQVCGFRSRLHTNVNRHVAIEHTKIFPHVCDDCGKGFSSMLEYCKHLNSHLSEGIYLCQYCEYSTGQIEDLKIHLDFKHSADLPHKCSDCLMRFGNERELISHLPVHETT

[2] = biological target: T2, human αE-catenin fused to the GAL4-DBD (plasmid pGBT9αECTN) (human, UniProt P04386 1-147; P35221 1-906, limits assumed); assay: yeast two-hybrid, strain Y190, HIS3 and LacZ reporters (FIG. 11)
T2 construct: also called full-length αE-catenin

B1: lamin C fused to the GAL4 DNA binding domain (plasmid pLAM5′) (other, UniProt P04386 1-147, looked up)
chain: MKLLSSIEQACDICRLKKLKCSKEKPKCAKCLKNNWECRYSPKTKRSPLTRAHLTEVESRLERLEQLFLLIFPREDLDMILKMDSLQDIKALLTGLFVQDNVNKDAVTDRLASVETDMPLTLRQHRISATSSSEESSNKGQRQLTVSSEEVVSREVSGIKAAYEAELGDARKTLDSVAKERARLQLELSKVREEFKELKARNTKKEGDLIAAQARLKDLEALLNSKEAALSTALSEKRTLEGELHDLRGQVAKLEAALGEAKKQLQDEMLRRVDAENRLQTMKEELDFQKNIYSEELRETKRRHETRLVEID
notes: Irrelevant control protein
B1: no binding [1].

B2: about full-length ANC-2H01 fused to the GAL4-AD (plasmid pGAD424ANC-2H01-FL) (other, not shown: large carriers)
chain: MNEYPKKRKRKTLHPSRYSDSSGISRIADGFNGIFSDHCYSVCSMRQPDLKYFDNKDDDSDTETSNDLPKFADGIKARNRNQNYLVPSPVLRILDHTAFSTEKSADIVICDEECDSPESVNQQTQEESPIEVHTAEDVPIAVEVHAISEDYDIETENNSSESLQDQTDEEPPAKLCKILDKSQALNVTAQQKWPLLRANSSGLYKCELCEFNSKYFSDLKQHMILKHKRTDSNVCRVCKESFSTNMLLIEHAKLHEEDPYICKYCDYKTVIFENLSQHIADTHFSDHLYWCEQCDVQFSSSSELYLHFQEHSCDEQYLCQFCEHETNDPEDLHSHVVNEHACKLIELSDKYNNGEHGQYSLLSKITFDKCKNFFVCQVCGFRSRLHTNVNRHVAIEHTKIFPHVCDDCGKGFSSMLEYCKHLNSHLSEGIYLCQYCEYSTGQIEDLKIHLDFKHSADLPHKCSDCLMRFGNERELISHLPVHETT
B2: no binding [2].
